Results taken from the nanobody polyreactivity screen of Harvey et al. (2022).

Test: yeast display, Sf9 membrane polyspecificity reagent, FACS + sequencing; frameworks hold sequencing errors
Method in brief: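 Genes from sorted yeast were amplified by colony PCR, read by MiSeq 2 × 250 sequencing and filtered on CDR length. These cells carried a synthetic nanobody library in Saccharomyces cerevisiae BJ5465 and were sorted by FACS into low and high (top ~1%) gates on anti-HA and streptavidin fluorescence. Polyreactivity is labelled according to the gate of origin.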
In the case of “QVQLVESGGGLGKAGGSLRLSCAASGFIFYWNAMGWYRQAPGKEREFVATITWSGGSTYYADSVKGRFTISRDYAKNTVYLQMNSLKPEDTAFYYCAAEAPVQPFYVFNSGIYELDYWGQGTQVTVSS”, the “polyreactivity (PSR sort gate)” value is reported as “low polyreactivity”. In the case of “QVQLVESGGGLGKAVGSLRLSCAASGSTFEYYALGWYRLAPGTETELVAAISTAGSTYYADSVKGRFTISRDNAKYTVYLQMNSLKPEDTGVYYCAVDPSPRSYYNYYWGQGTQVTVSS”, the “polyreactivity (PSR sort gate)” value is reported as “high polyreactivity”. With “QVQLVESGGGLGQAGGRLRLSCAASGRTFAQNAMGWNRKAPGKERELVAAITSSGGSTYYADSVKGRFTISRDNAKNTVYLQMNSLKPEDTAVYYCAADRHYGTEYAYDYWGQGTQVTVSS” the “polyreactivity (PSR sort gate)” value was “low polyreactivity”. In the case of “QVQLVESGGGLGQAGGRLRLSCAASGRTFGYNAMGWYRQAPGKERELVAAISSGGSTNYADSVKGRFTISRDNAKNTVYLQMNSLKPEDTAVYYCAARRWRYVGTRYDYWGQGTQVTVSS”, the “polyreactivity (PSR sort gate)” value is reported as “high polyreactivity”. For “QVQLVESGGGLGQAGGSLLLSCAASGTFYTYAMGWYRQAPAKERELVAAINGGGRTYYADSVKGRITISRDNAKNSVYFQMNSLKPEDTAVYYCAAVRRISRYDYWGQGTQVTVSS”, the “polyreactivity (PSR sort gate)” value was “high polyreactivity”. For “QVQLVESGGGLGQAGGSLRISCAASGRTFGIYAMGCYRQAPGKLRELVATISWRGGSTYYADSVKGRFTISRDNAKNTVYLQMNSLTPEDTAVYYCAAGPGYLILISDIYGYWGQGTQVTVSS”, the “polyreactivity (PSR sort gate)” value was “low polyreactivity”. In the case of “QVQLVESGGGLGQAGGSLRLICAASGIIFLYYAMGWYRQAPGKERELVAAITRSGGNTYYADSVKGRFTISRDNAKNTVYLQMNSLIPEDTAVYYCAARHNSVRGRGYGYDYWGQGTQVTVSS”, the “polyreactivity (PSR sort gate)” value is reported as “low polyreactivity”. With “QVQLVESGGGLGQAGGSLRLSCAASGFIFGLNAMGWYRQAPGKERELVAAISSIGGSTYYADSVKGRFTISRDNAMNTVYLQMNSLIPEDTAVYYCAKRYGGRRSWYDYWGQGSQVTVSS” the “polyreactivity (PSR sort gate)” value was “high polyreactivity”. In the case of “QVQLVESGGGLGQAGGSLRLSCAASGFIFTPYTMGWYRQAPGKERELVAAITDGSSTYYADSVKGRFTISRDNAKNTVYLQMNSLKQEDTAVYYCNDDGKPPYISWLYDYWGLGTQVTVSS”, the “polyreactivity (PSR sort gate)” value is reported as “low polyreactivity”. In the case of “QVQLVESGGGLGQAGGSLRLSCAASGLIFFFYAMGWYRQAPGKERELVASISGGGITYYADSVKGRFTISRDNAKNTVYLQMYSLKPEDTAVIKNDFWGQGTQVTVSS”, the “polyreactivity (PSR sort gate)” value is reported as “low polyreactivity”. With “QVQLVESGGGLGQAGGSLRLSCAASGRIFSQNAMGWYRQAPGNERELVAAITGNGGDTYYADSVKGRFTISRDNAKNTVYLQMNSLKPEDTAVYYCAARVPPVYGRVGGYHYWGPGTQVTVSS” the “polyreactivity (PSR sort gate)” value was “low polyreactivity”. In the case of “QVQLVESGGGLGQAGGSLRLSCAASGRIFTFNAMGWYRQAPGKARELVAAISSRGDGTYYADSVKGRFTISRDNAKNTVYLQMNSLKPEDTAVYDCAADVYPYQSLSYPLQYELDYWGQGTQVTVSS”, the “polyreactivity (PSR sort gate)” value is reported as “low polyreactivity”. For “QVQLVESGGGLGQAGGSLRLSCAASGRILYIYVMGRYRQARGKERELVAALTWDDGDTYYADSVKGRFTISRDNAKITVYLQMNSLKPEDTAVYNCNAGGQGVATITGHTPEFDYWGQGTQVTVSS”, the “polyreactivity (PSR sort gate)” value was “low polyreactivity”. With “QVQLVESGGGLGQAGGSLRLSCAASGRTFAAYAMGWYRQAPGKERELVAAISAGDGTNYADSVKGRFTISRVNAQNTVYLQMNSLKPEDTAVYYCAAVGPLFWPYYSYRRGYDYWGQGTQVTVSS” the “polyreactivity (PSR sort gate)” value was “low polyreactivity”. For “QVQLVESGGGLGQAGGSLRLSCAASGRTFDNYAMGWYRQAPGKERELVARITDTGGSTYYADSVKGRFTISRVNAKNTVYLQMNSLKPEDTAVYYCAAVSYPFAWYWLYYYWGQGTQVTVSS”, the “polyreactivity (PSR sort gate)” value was “low polyreactivity”. For “QVQLVESGGGLGQAGGSLRLSCAASGSIFDINAMGWYRQAPGKERELVAANRENGGDTYYPDSVKGRFTISRDNAKHTVYLQMNSLKPEDTAVYYCAAYSGDQAYQGDYWGQGTQVTVSS”, the “polyreactivity (PSR sort gate)” value was “low polyreactivity”. In the case of “QVQLVESGGGLGQAGGSLRLSCAASGSIFGKNAMGWYRQAPGKETELVAAITWSGGSTYYADSVKGRFTISRDNAKNTVYLQLNSLKPEDTAVYYCNAVRVRVTSHRFRQLDYGYWGQGTQVTVSS”, the “polyreactivity (PSR sort gate)” value is reported as “low polyreactivity”. With “QVQLVESGGGLGQAGGSLRLSCAASGSIFSANAMGWYRQAPGKERELVASITGDGSTNYADSVKGRFTISRDNAKNTVYLQMNSLKPEDTAVYYCAADIGSWYDYWGQGTQVTVSS” the “polyreactivity (PSR sort gate)” value was “low polyreactivity”. With “QVQLVESGGGLGQAGGSLRLSCAASGSIFYSYAMGWYRQAPGKDRELVADISSDGSTNYADSVKGRFTISRDNAKNTVFLQMNSLKPEDTAVYYCAKKPSSARYVTIGFDYWGQGTQVTVSS” the “polyreactivity (PSR sort gate)” value was “low polyreactivity”. For “QVQLVESGGGLGQAGGSLRLSCAASGYTFAGYAMGWYRPAPGKETELVAAISQSGGRTNYADSVKGRFTISRDNSKNTVYLQMNSLKPADTAVYYCAAEETSYTSEYWGQGTQVTVSS”, the “polyreactivity (PSR sort gate)” value was “high polyreactivity”. With “QVQLVESGGGLGQAGGSLRLSCSASGRIFDIYGMGWYRQAPGKERELVAAITSGGDTNYADSVKGRFTISRDNAKNTVYLQMNSLKPEDTAVYYCAARIRDQDRYDYDYWGQGTQVTVSS” the “polyreactivity (PSR sort gate)” value was “low polyreactivity”. With “QVQLVESGGGLIQAGGSLRLSCAASGSTFPYYAMGWYRQAPVKEREFVAAIRFSGSSTYDADSVKGRYTISRDYAKTTVYLQMNSLNREDTAVYYCATDYWLPSFSYDYWGQGTQVTVSS” the “polyreactivity (PSR sort gate)” value was “low polyreactivity”. For “QVQLVESGGGLLHAGGSLRLSCAASGRTFYSNAMGWYRQAPGKERELVASISSRGSTNYADSVKGRFTISRDNAKNTVYLEMNSLKPEDTAVYYCAKRTHQFGVSRSYNTYYYWGHGTQVTVSS”, the “polyreactivity (PSR sort gate)” value was “low polyreactivity”. With “QVQLVESGGGLLKAGGSLRLISAASGSIFGYNTMGWYRQAPGKERELVADISVSGDDTYYADSVKGRFTISRDNAKNTVYLQMNSLKPEDTAVSYCNAVEYFGYYNTYDYWGQGTQVTVSS” the “polyreactivity (PSR sort gate)” value was “low polyreactivity”. For “QVQLVESGGGLLQAGGSISLSCAASGFTISPYAMGWYRQAPAKERELVAVISKSSTRTYYADSVKGRFTITRDNAKNTVYLQMNSLKPEDTAVYYCYAGCNFVSGYYYWGQGTQVTVSS”, the “polyreactivity (PSR sort gate)” value was “high polyreactivity”. With “QVQLVESGGGLLQAGGSLPLSCAASGRIFIKYAMGWYRPAPGKERELVAAISQSGGSTYYADSVKGRFTISRDNAKNTVYLQMNSLKPEDTAVYYCAAGNRRLGGRLYRYYYWGQGPQVTVSS” the “polyreactivity (PSR sort gate)” value was “high polyreactivity”. For “QVQLVESGGGLLQAGGSLRISCAASGSILFLYDMGWYRQAPGKERELVAAIRWSGGGTYYADSVKGRFTISRDNAKNTVYLQMNSLKPEDTAVYYCAAAARYPFDVTYYYWGQGTQVTVSS”, the “polyreactivity (PSR sort gate)” value was “high polyreactivity”. In the case of “QVQLVESGGGLLQAGGSLRLRSPASGSIFEEYAMGWYRQAPGKERELVAAITRRGGNTYYADSVKGRFTISRDNAKNTVYLQMTSLKPEDTAVYYCAAPLGNYSWQYEYWGPGTQVTVSS”, the “polyreactivity (PSR sort gate)” value is reported as “low polyreactivity”. With “QVQLVESGGGLLQAGGSLRLSCAASGFIFDGYAMGWYRQAPGKERELVAAISSVGSTYYADSVKGRFTISRDNAKKTVYLQMNSLKPEDTAVYYCAAVRFYTYNYWGQGTQVTVSS” the “polyreactivity (PSR sort gate)” value was “low polyreactivity”. In the case of “QVQLVESGGGLLQAGGSLRLSCAASGFIFHHYGMGWYRQAPGKERELVAGDTHYADSVKGRFTISRDNAKNTVYLQMNSLKPEDTGVYYCNAYWKDDFEDGPGRRGMDYWGQGTQVTVSS”, the “polyreactivity (PSR sort gate)” value is reported as “low polyreactivity”. With “QVQLVESGGGLLQAGGSLRLSCAASGFIFRRYTLGWYRQAPGKERELVAAITSSGARTYYADSVKGRFTISRDNAKNTVYLQMTSLKPEDTAVYYCYTSYRKKKRYYYWGQGTQVTVSS” the “polyreactivity (PSR sort gate)” value was “high polyreactivity”. For “QVQLVESGGGLLQAGGSLRLSCAASGFIFVDNAMGWYRQAPGKERELVAAITSGASTYYADSVKGRFTISRDNAKNTVYLQMNSLKPEDTAVYYCAADYLYYYTWYNYWGQGTQVTVSS”, the “polyreactivity (PSR sort gate)” value was “low polyreactivity”. With “QVQLVESGGGLLQAGGSLRLSCAASGFILNSYAMGWYRQAPGKERELVAAITRSGGNTFYADSVKGRFKISRDNAKNTVYLQMNSLQPEDTAVYYCYAYFTYWSQLYYWGQGTQVTVSS” the “polyreactivity (PSR sort gate)” value was “high polyreactivity”. For “QVQLVESGGGLLQAGGSLRLSCAASGFTFHKNAMGWYRQAPGKERELVAAISRSGGRTYYADSVKGRFTISRDNAKNTVYLQMNSLKPEDTAVYYCNATPLLWAGYDYWGQGTQVTVSS”, the “polyreactivity (PSR sort gate)” value was “high polyreactivity”. In the case of “QVQLVESGGGLLQAGGSLRLSCAASGFTFRNYAMGWYRQAPGKEREFVAAITGRGGSTYYADSVKGRFTISRDNAKNTVYLQMNSLKPEDTAVYYCNAYSGVSFYSSWYGYWGQGTQVTVSS”, the “polyreactivity (PSR sort gate)” value is reported as “high polyreactivity”. For “QVQLVESGGGLLQAGGSLRLSCAASGFTFRPYAMGLYRQAPGKERELVAAIDYSGGSTSYADSVKGRFTISRDNAKNTVYLQLNSLKPEDTAVFSCATDYPLSWSPLYDYDYWGQGTQVTVSS”, the “polyreactivity (PSR sort gate)” value was “low polyreactivity”. In the case of “QVQLVESGGGLLQAGGSLRLSCAASGFTFSRYAMGWYRQAPRKEMELVATISRSGGTTYYADSVKGRFTISRDNAKNTVYLLMNSLKPEDTAVYYGNTDKIWGLQYYYWGQGTQVTVSS”, the “polyreactivity (PSR sort gate)” value is reported as “high polyreactivity”. In the case of “QVQLVESGGGLLQAGGSLRLSCAASGFTIYRYAMGWYRQATGKERELVAAITGGGGSTYYADSVKGRFTISRDNAKNTVYLQMNSLKPEDTAVYYCAVDVYHIGQYRWSYGYWGQGTQVTVSS”, the “polyreactivity (PSR sort gate)” value is reported as “low polyreactivity”. For “QVQLVESGGGLLQAGGSLRLSCAASGGIFQGNVMGWYRQAPGKERELVASIRRGGSTNYADSVKGRFTISRDNAKNTVYLQMNSLKPEDTAVYYCAARKWVGYHVWPLREYNYWGQGTQVTVSS”, the “polyreactivity (PSR sort gate)” value was “low polyreactivity”. For “QVQLVESGGGLLQAGGSLRLSCAASGINFSKYAMGWYRQAPGTERELVAVISASGGGTYYADSVKGRFTISRDNAKNTVYLQMNSLKPEDTAVYFCAADSSDVYDYWGQGTQVTVSS”, the “polyreactivity (PSR sort gate)” value was “high polyreactivity”. In the case of “QVQLVESGGGLLQAGGSLRLSCAASGRIFDRNAMGWYRQAPGKERELVATISSGDTTDYADSVKGRFTISRDNAKNTVYLQMNSLKPEDTAVYYITIYNYWGQGTQVTVSS”, the “polyreactivity (PSR sort gate)” value is reported as “low polyreactivity”. In the case of “QVQLVESGGGLLQAGGSLRLSCAASGRIFSTNAMGWYRQAPGKERELVAAITNGGNTNYADSVKGRFTISRDNAKITVYLQMNSLKQEDTAVYYCAKAVAYSWVDGYGYEYWGQGTQVTVSS”, the “polyreactivity (PSR sort gate)” value is reported as “low polyreactivity”. For “QVQLVESGGGLLQAGGSLRLSCAASGRIFVVYAMGWYRQAPGKERELVASITWRGGSTYYADSVKGRFTISRDNAKNTVYLQMNSLKPEDTAVYYCAAELDVYVSIGSRFHFDYWGQGTQVTVSS”, the “polyreactivity (PSR sort gate)” value was “low polyreactivity”.
